Assay [1] addresses C/EBP bZIP domain (chimeric GCN4-C/EBP protein) (C/EBP part: 'present in rat liver'; GCN4 part: yeast). The experiment in a line: CD thermal melt, equimolar mixture, 150 mM KCl.
For assay [2], the target named is c-Myc bHLH protein (murine) (UniProt P01108). As to the kind of experiment: heterodimer with c-Myc, study of FIG. 9 (method not given).
For another assay, the target named is T1, CREB (unmodified).
T1 sequence (chain, from a related filing, looked up): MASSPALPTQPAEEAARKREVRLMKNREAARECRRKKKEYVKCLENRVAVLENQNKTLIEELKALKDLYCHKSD
The experiment in a line: thermal melting curve, mixture (FIG. 3).

The next assay addresses c-Jun (unmodified). As to the kind of experiment: from thermal melts, Kd at 37 °C (FIG. 4).

B1: 3heptad-C/EBP (three heptad acidic extension appended onto the C/EBP leucine zipper) (designed binder, not shown: a dimerising Fc or GST)
chain: ASMTGGQQMGRDPGGGLARENEELEKEAEELEQENAELEQKVLELTSDNDRLRKRVEQLSRELDTLRGIFRQLPESSLVKAMGNCA
As a reminder, the Kd is the constant that tells how readily two partners part at equilibrium. By Tm is commonly meant the temperature at which the thermal transition is half complete. As to B1, in assay [1], the equilibrium dissociation constant (Kd) came out at 0.6 nM, the Tm stood at 61 °C and the delta G at 25 °C is -12.6 kcal/mol.

B2: 0heptadMax (dimerization domain of Max without an acidic extension) (protein)
chain: ASMTGGQQMGRDPDLEELEDSFHSLRDSVPSLQGEKASRAQILDKATEYIQYMRRKNHTHQQDIDDLKRQNALLEQQVRALEKARSSAQLQT
B2 gave a Kd in assay [2] of 0.6 nM.

B3: New4hepCREB (CREB with the new 4heptad acidic extension, asparagine changed to leucine) (designed binder)
chain: MDYKDDDDKHMASMTGGQQMGRDPDLEQRAEELARENEELEKEAEELEQELAELENRVAVLENQNKTLIEELKALKDLYCHKSD
With B3, the midpoint of thermal melting (Tm) with CREB (unmodified) stood at 69.5 °C.

B4: AcidMax (Max with a polyglutamic acid extension on the dimerization domain) (designed binder)
chain: MASMTGGQQMGRDPDEEEDDEEELEELEDSFHSLRDSVPSLQGEKASRAQILDKATEYIQYMRRKNHTHQQDIDDLKRQNALLEQQVRALEKARSSAQLQT
Turning to B4, the Kd in assay [2] amounted to 0.002 nM.

B5: c-Jun (unmodified) (protein, from a related filing)
chain: PLSPIDMESQERIKAERKRMRNRIAASKCRKRKLERIARLEEKVKTLKAQNSELASTANMLREQVAQLKQKVMNHVNSGCQLMLTQQLQTF
In turn, B5 gave a Kd with c-Jun (unmodified) of 20000 nM.

Values taken from patent US20030027314A1.
